# Laboratory results: the RNAGym collection of RNA variant scans (doi:10.1093/nar/gkz1192)
# B1: CPEB3 Ribozyme (parent)
# chain: UAACAGGGGGCCACAGCAGAAGCGUUCACGUCGCAGCCCCUGUCAGAUUCUGGUGAAUCUGCGAAUUCUGCUGUAUAUCUC
# Variants of: B1
# Assay: self-cleavage, relative activity (ratio to wild type); higher = more cleavage; in vitro, sequencing
# In short: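 Barcoded CPEB3 ribozyme mutants, produced by rounds of error-prone PCR, self-cleaved while being transcribed with T7 RNA polymerase for 5 hours at 37°C and during a subsequent 15 min DNase I step before EDTA was added. Sequencing of template-switched cDNA on Illumina gave cleaved and total reads, and DNA sequencing assigned barcodes to variants. Each variant's relative activity is its cleaved/total read fraction divided by the unmutated ribozyme's fraction, averaged across three batches. A variant needed a minimum of 5 reads.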
row,Variant,self-cleavage
1,UAACAGGGGGCCACAGCAGAAGCGUUCACGUCGCAGCCCCUGUCAGAUUCUGGAGAAUCUGCGAACUCUGCUGUAUAUCUC [U54A U66C],0.49
2,UAACAGGGGGCCACAGCAGAAGCGUUCACGUCGCAGCCCCUGUCAGAUUCUGGAGAAUCUGCGAAGUCUGCUGUAUAUCUC [U54A U66G],0.65
3,UAACAGGGGGCCACAGCAGAAGCGUUCACGUCGCAGCCCCUGUCAGAUUCUGGAUAAUCUGCGAAUUCUGCUGUAUAUCUC [U54A G55U],1.15
4,UAACAGGGGGCCACAGCAGAAGCGUUCACGUCGCAGCCCCUGUCAGAUUCUGGAAAAUCUGCGAAUUCUGCUGUAUAUCUC [U54A G55A],0.8
5,UAACAGGGGGCCACAGCAGAAGCGUUCACGUCGCAGCCCCUGUCAGAUUCUGGAGAAUCAGCGAAUUCUGCUGUAUAUCUC [U54A U60A],0.68
6,UAACAGGGGGCCACAGCAGAAGCGUUCACGUCGCAGCCCCUGUCAGAUUCUGGAGAAUCGGCGAAUUCUGCUGUAUAUCUC [U54A U60G],0.65
7,UAACAGGGGGCCACAGCAGAAGCGUUCACGUCGCAGCCCCUGUCAGAUUCUGGAGAAUCCGCGAAUUCUGCUGUAUAUCUC [U54A U60C],0.67
8,UAACAGGGGGCCACAGCAGAAGCGUUCACGUCGCAGCCCCUGUCAGAUUCUGUUGAAUCUGCGAUUUCUGCUGUAUAUCUC [G53U A65U],0.25
9,UAACAGGGGGCCACAGCAGAAGCGUUCACGUCGCAGCCCCUGUCAGAUUCUGGAGAAUCUGCGAAUUCUGCUGUAUGUCUC [U54A A77G],1.06
10,UAACAGGGGGCCACAGCAGAAGCGUUCACGUCGCAGCCCCUGUCAGAUUCUGGAGAAUCUGCGAAUUCUGCUGUAUUUCUC [U54A A77U],1.23
11,UAACAGGGGGCCACAGCAGAAGCGUUCACGUCGCAGCCCCUGUCAGAUUCUGGAGAAUCUGCGAAUUCUGCUGUAUCUCUC [U54A A77C],1.12
12,UAACAGGGGGCCACAGCAGAAGCGUUCACGUCGCAGCCCCUGUCAGAUUCUGUUGAAUCUGCGAAUCCUGCUGUAUAUCUC [G53U U67C],0.21
13,UAACAGGGGGCCACAGCAGAAGCGUUCACGUCGCAGCCCCUGUCAGAUUCUGUUGAAUCUGCGAAUUCUGCCGUAUAUCUC [G53U U72C],1.2
14,UAACAGGGGGCCACAGCAGAAGCGUUCACGUCGCAGCCCCUGUCAGAUUCUGUUGAAUCUGCGAAUUCUGCAGUAUAUCUC [G53U U72A],0.94
15,UAACAGGGGGCCACAGCAGAAGCGUUCACGUCGCAGCCCCUGUCAGAUUCUGGAGAAUCUGCGAAUUCUGCUGUAUAUUUC [U54A C79U],1.16
16,UAACAGGGGGCCACAGCAGAAGCGUUCACGUCGCAGCCCCUGUCAGAUUCUGGAGAAUCUGCGAAUUCUGCUGUAUAUGUC [U54A C79G],1.23
17,UAACAGGGGGCCACAGCAGAAGCGUUCACGUCGCAGCCCCUGUCAGAUUCUGGAGAAUCUGCGAAUUCUGCUGUAUAUAUC [U54A C79A],1.23
18,UAACAGGGGGCCACAGCAGAAGCGUUCACGUCGCAGCCCCUGUCAGAUUCUGGAGAAUCUGCGAAUUCUCCUGUAUAUCUC [U54A G70C],0.39
19,UAACAGGGGGCCACAGCAGAAGCGUUCACGUCGCAGCCCCUGUCAGAUUCUGGAGAAUGUGCGAAUUCUGCUGUAUAUCUC [U54A C59G],0.35
20,UAACAGGGGGCCACAGCAGAAGCGUUCACGUCGCAGCCCCUGUCAGAUUCUGGAGAUUCUGCGAAUUCUGCUGUAUAUCUC [U54A A57U],1.04
21,UAACAGGGGGCCACAGCAGAAGCGUUCACGUCGCAGCCCCUGUCAGAUUCUGGAGACUCUGCGAAUUCUGCUGUAUAUCUC [U54A A57C],0.77
22,UAACAGGGGGCCACAGCAGAAGCGUUCACGUCGCAGCCCCUGUCAGAUUCUGGAGAGUCUGCGAAUUCUGCUGUAUAUCUC [U54A A57G],0.91
23,UAACAGGGGGCCACAGCAGAAGCGUUCACGUCGCAGCCCCUGUCAGAUUCUGGAGAAUCUGCGAAUUCUGCCGUAUAUCUC [U54A U72C],1.17

row,Variant,self-cleavage
1,UAACAGGGGGCCACAGCAGAAGCGUUCACGUCGCAGCCCCUGUCAGAUUCUGGAGAAUCUGCGAAUUCUGCGGUAUAUCUC [U54A U72G],0.87
2,UAACAGGGGGCCACAGCAGAAGCGUUCACGUCGCAGCCCCUGUCAGAUUCUGGAGAAUCUGCGAAUUCUGCAGUAUAUCUC [U54A U72A],1.02
3,UAACAGGGGGCCACAGCAGAAGCGUUCACGUCGCAGCCCCUGUCAGAUUCUGGAGAAUCUGCGAAUGCUGCUGUAUAUCUC [U54A U67G],0.36
4,UAACAGGGGGCCACAGCAGAAGCGUUCACGUCGCAGCCCCUGUCAGAUUCUGGAGAAUCUGCGAAUACUGCUGUAUAUCUC [U54A U67A],0.67
5,UAACAGGGGGCCACAGCAGAAGCGUUCACGUCGCAGCCCCUGUCAGAUUCUGGAGAAUCUGCGAAUCCUGCUGUAUAUCUC [U54A U67C],0.46
6,UAACAGGGGGCCACAGCAGAAGCGUUCACGUCGCAGCCCCUGUCAGAUUCUGGAGAAUCUGCGAAUUAUGCUGUAUAUCUC [U54A C68A],0.44
7,UAACAGGGGGCCACAGCAGAAGCGUUCACGUCGCAGCCCCUGUCAGAUUCUGGAGAAUCUGCGAAUUUUGCUGUAUAUCUC [U54A C68U],1.03
8,UAACAGGGGGCCACAGCAGAAGCGUUCACGUCGCAGCCCCUGUCAGAUUCUGGAGAAUCUGAGAAUUCUGCUGUAUAUCUC [U54A C62A],0.32
9,UAACAGGGGGCCACAGCAGAAGCGUUCACGUCGCAGCCCCUGUCAGAUUCUGGAGAAUCUGGGAAUUCUGCUGUAUAUCUC [U54A C62G],0.42
10,UAACAGGGGGCCACAGCAGAAGCGUUCACGUCGCAGCCCCUGUCAGAUUCUGGAGAAUCUGUGAAUUCUGCUGUAUAUCUC [U54A C62U],0.25
11,UAACAGGGGGCCACAGCAGAAGCGUUCACGUCGCAGCCCCUGUCAGAUUCUGGAGAAUCUGCGAAUUCUGAUGUAUAUCUC [U54A C71A],0.42
12,UAACAGGGGGCCACAGCAGAAGCGUUCACGUCGCAGCCCCUGUCAGAUUCUGGAGUAUCUGCGAAUUCUGCUGUAUAUCUC [U54A A56U],0.66
13,UAACAGGGGGCCACAGCAGAAGCGUUCACGUCGCAGCCCCUGUCAGAUUCUGGAGGAUCUGCGAAUUCUGCUGUAUAUCUC [U54A A56G],0.82
14,UAACAGGGGGCCACAGCAGAAGCGUUCACGUCGCAGCCCCUGUCAGAUUCUGUUGAAUCUGCGAAUUUUGCUGUAUAUCUC [G53U C68U],1.13
15,UAACAGGGGGCCACAGCAGAAGCGUUCACGUCGCAGCCCCUGUCAGAUUCUGGAGAAUCUGCGGAUUCUGCUGUAUAUCUC [U54A A64G],0.92
16,UAACAGGGGGCCACAGCAGAAGCGUUCACGUCGCAGCCCCUGUCAGAUUCUGGAGAAUCUGCGUAUUCUGCUGUAUAUCUC [U54A A64U],0.37
17,UAACAGGGGGCCACAGCAGAAGCGUUCACGUCGCAGCCCCUGUCAGAUUCUGGAGAAUCUGCGCAUUCUGCUGUAUAUCUC [U54A A64C],0.16
18,UAACAGGGGGCCACAGCAGAAGCGUUCACGUCGCAGCCCCUGUCAGAUUCUGUUGAAUCUGCGAAUUCUGCUGUAUAUCUG [G53U C81G],1.24
19,UAACAGGGGGCCACAGCAGAAGCGUUCACGUCGCAGCCCCUGUCAGAUUCUGGAGAAUCUGCGAAUUCUGCUAUAUAUCUC [U54A G73A],1.25
20,UAACAGGGGGCCACAGCAGAAGCGUUCACGUCGCAGCCCCUGUCAGAUUCUGGAGAAUCUGCGAAUUCUGCUUUAUAUCUC [U54A G73U],1.27
21,UAACAGGGGGCCACAGCAGAAGCGUUCACGUCGCAGCCCCUGUCAGAUUCUGGAGAAUCUGCGAAUUCUGCUGAAUAUCUC [U54A U74A],1.22
22,UAACAGGGGGCCACAGCAGAAGCGUUCACGUCGCAGCCCCUGUCAGAUUCUGGAGAAUCUGCGAGUUCUGCUGUAUAUCUC [U54A A65G],0.55
23,UAACAGGGGGCCACAGCAGAAGCGUUCACGUCGCAGCCCCUGUCAGAUUCUGGAGAAUCUGCGAUUUCUGCUGUAUAUCUC [U54A A65U],0.26

row,Variant,self-cleavage
1,UAACAGGGGGCCACAGCAGAAGCGUUCACGUCGCAGCCCCUGUCAGAUUCUGGAGAAUCUGCGACUUCUGCUGUAUAUCUC [U54A A65C],0.29
2,UAACAGGGGGCCACAGCAGAAGCGUUCACGUCGCAGCCCCUGUCAGAUUCUGGAGAAUCUGCGAAUUCUGCUGUAUAUCUC [U54A],1.09
3,UAACAGGGGGCCACAGCAGAAGCGUUCACGUCGCAGCCCCUGUCAGAUUCUGUAGAAUCUGCGAAUUCUGCUGUAUAUCUC [G53U U54A],0.98
4,UAACAGGGGGCCACAGCAGAAGCGUUCACGUCGCAGCCCCUGUCAGAUUCUGUUGAAUCUGCGAAUUCCGCUGUAUAUCUC [G53U U69C],0.59
5,UAACAGGGGGCCACAGCAGAAGCGUUCACGUCGCAGCCCCUGUCAGAUUCUGUUGAAUCUGCGAAUUCUGCUGAAUAUCUC [G53U U74A],1.2
6,UAACAGGGGGCCACAGCAGAAGCGUUCACGUCGCAGCCCCUGUCAGAUUCUGUUGAAUCUGCGAAUUCUGCUGCAUAUCUC [G53U U74C],1.18
7,UAACAGGGGGCCACAGCAGAAGCGUUCACGUCGCAGCCCCUGUCAGAUUCUGGAGAAUCUGCGAAUUCUGCUGUAUAUCUU [U54A C81U],1.2
8,UAACAGGGGGCCACAGCAGAAGCGUUCACGUCGCAGCCCCUGUCAGAUUCUGGAGAAUCUGCAAAUUCUGCUGUAUAUCUC [U54A G63A],0.95
9,UAACAGGGGGCCACAGCAGAAGCGUUCACGUCGCAGCCCCUGUCAGAUUCUGUUGAAUCUGCGAAGUCUGCUGUAUAUCUC [G53U U66G],0.66
10,UAACAGGGGGCCACAGCAGAAGCGUUCACGUCGCAGCCCCUGUCAGAUUCUGUUGAAUCUGCGAAUUCUGCUGUACAUCUC [G53U U76C],1.22
11,UAACAGGGGGCCACAGCAGAAGCGUUCACGUCGCAGCCCCUGUCAGAUUCUGGAGAACCUGCGAAUUCUGCUGUAUAUCUC [U54A U58C],0.69
12,UAACAGGGGGCCACAGCAGAAGCGUUCACGUCGCAGCCCCUGUCAGAUUCUGGAGAAACUGCGAAUUCUGCUGUAUAUCUC [U54A U58A],0.45
13,UAACAGGGGGCCACAGCAGAAGCGUUCACGUCGCAGCCCCUGUCAGAUUCUGGAGAAGCUGCGAAUUCUGCUGUAUAUCUC [U54A U58G],0.42
14,UAACAGGGGGCCACAGCAGAAGCGUUCACGUCGCAGCCCCUGUCAGAUUCUGUUGAACCUGCGAAUUCUGCUGUAUAUCUC [G53U U58C],1.08
15,UAACAGGGGGCCACAGCAGAAGCGUUCACGUCGCAGCCCCUGUCAGAUUCUGGAGAAUCUGCGAAUUCUGCUGUCUAUCUC [U54A A75C],1.19
16,UAACAGGGGGCCACAGCAGAAGCGUUCACGUCGCAGCCCCUGUCAGAUUCUGGAGAAUCUGCGAAUUCUGCUGUUUAUCUC [U54A A75U],1.21
17,UAACAGGGGGCCACAGCAGAAGCGUUCACGUCGCAGCCCCUGUCAGAUUCUGGAGAAUCUGCGAAUUCUGCUGUGUAUCUC [U54A A75G],1
18,UAACAGGGGGCCACAGCAGAAGCGUUCACGUCGCAGCCCCUGUCAGAUUCUGGAGAAUCUGCGAAUUCGGCUGUAUAUCUC [U54A U69G],0.92
19,UAACAGGGGGCCACAGCAGAAGCGUUCACGUCGCAGCCCCUGUCAGAUUCUGGAGAAUCUGCGAAUUCAGCUGUAUAUCUC [U54A U69A],0.86
20,UAACAGGGGGCCACAGCAGAAGCGUUCACGUCGCAGCCCCUGUCAGAUUCUGGAGAAUCUGCGAAUUCCGCUGUAUAUCUC [U54A U69C],0.63
21,UAACAGGGGGCCACAGCAGAAGCGUUCACGUCGCAGCCCCUGUCAGAUUCUGGAGAAUCUACGAAUUCUGCUGUAUAUCUC [U54A G61A],0.73
22,UAACAGGGGGCCACAGCAGAAGCGUUCACGUCGCAGCCCCUGUCAGAUUCUGGAGAAUCUUCGAAUUCUGCUGUAUAUCUC [U54A G61U],0.76
